The DeepSol protein solubility set

test: soluble on expression in E. coli; label from the status in PepcDB or PDB records

Soluble on expression in E. coli, not soluble:
MIELDQTNIPKHVAIIMDGNGRWAKQKNKMRIFGHTNGVTAVRKAVAYARQIGVEVLTLYAFSSENWSRPEQEISALMSLFMQALDREVKKLHKNNICLKIIGDVSRFSETLQEKIKKAENLTEKNTALTLNIAANYGGCWDIIQAAKQIAEKVKKEEMSVSDINNSTFQHHLATQNAPPVDLLIRTSGEQRISNFLLWQIAYAELYFSDVLWPDFNQLEFNRAIASYQQRHRRFGGTE, MIEQPDSKSAKPLYKQLEAALKEAIARGEYKPGQQIPTENELSVRWQVSRVTVRKALDALTRENLLTRVSGKGTFVSGEKFQRSMTGIMSFSELCQSQGRRPGSRTIKSVFESVDDETKALLNMNDGEKAVVIERIRYADDVAVSLETVHLPPRFAFLLDEDLNNHSLYECLREKYHLWFTHSRKMIELVYASFEVAHYLGVNEGYPLILIKSEMIDNKGELSCVSQQLIVGDKIRFTV, MIETTLTGKTPDIGEENIKKLMTMFPEVVTEGKVDFEKLKQLLGEYVDDSNERYNFTWNGKGRALRLSQTPSLGTLRPCKEESKNWDTTQNLYIEGDNLEVLKLLQKSYYGKIKMIYIDPPYNTGKDFVYRDDFHDSLENYKRITGQVDGNGKAISTNTETSGRYHTDWLNMMYPRLRLARNLLSDDGVIFISIDDNEVDNLKKICNEIFGEDNFIANCVRKRRDSQANLSQNISPIHEYVLIYAKRFGNILNKVTPSLDMGSYKNPDNDPRGPYTTMPCTNVGGAVYSIVTPTGKTITDEWRFKKETFEKLLLDNRIVFPRNGEGKPRYKIFLSEKMAEGVLANTWLDKIASNQEGTREIKELFGGLLFNNPKPTGLLKFLLELGSSKDSIILDFFSGSATTAHAVMQLNAEDGGNRRFIMVQLPEPTDENSEAYKAGYMNISEIGKERIRRAGEKIKEEYKDKGNIENLDIGFKVFKLDTSNIRKWQPDYDNLEQSLMDYVDNFVEGRTELDVVYEIMLKYGLDLTYPVDEFTIAGKKVYSIGYGMLMICLDNEITTEVAKGILTKIKELSPESSRVVFKDNGFKTDSNKTNIKEILKSGGIEEFITI, MIFKVGDTVVYPHHGAALIEAIETRTIKGEQKEYLVLKVAQGDLTVRVPADNAEYVGVRDVVGQEGLDKVFQVLRAPHTEEPTNWSRRYKANLEKLASGDVNKVAEVVRDLWRREQDRGLSAGEKRMLAKARQILVGELALAEGTDSDKAETILDEVLAAAS, MIGKCTHVVDCRETMGMGEGGGIAQRGTFAQCGSEVLAVAMSPGRRHITKPVCEITFALREANIMTSTIVLNAGAGVPQDAPSAGAGSLFGLTPAEVEQMKRHKLLVVHLGGVKNHITYKARLILRNVDRPCIIICEYPVDFEDFAKIGVRTRAVMPDEPKTKGTIVDIVSGVIRGETCPQEKLDEIIRKVKLALGGALEHHHHHH, MIGVVIPAHNEEQLLADCLRCALKAASHPELNEDVAILVVLDSCSDGSLDIARQFAVQHLQLQVRNVGRARAAGAQLLLQAGARWLSCTDADSRVPEDWLVAQLALGADAVCGTVTVDRWSESFEPQARIRYHDAYQDSDGHRHIHGANLGISAAAYVRAGGFEALACHEDVQLVRQLQRCGASIAWSRHPQVITSGRLDSRAKGGFGDYLKGLNEPCAGLLEHHHHHH, MIHTLAKCEWIKKSLPLCLIGDSGTGKSHLLIALGTEAAMAGYRVKYVLATKLVNELVEAADEKQLTKTIARYGRVDLLCIDELGYMELDRRGAELLFQVLTEREEKNSVAIASNESFSGWTKTFTDPRLCAAIVDRLTFGGNIIETGTDSYRLATTRARAEQQAVVLEHHHHHH, MIIKSISLMHDRGNGLGGGFAAYGIYPDFKEFFAFHLMYENGMALQLTEEYLERHFFVEHYEEIPTRRTPAIVHPPLFKRYFVKPLETPEYREAIDYQNMTDEDVVVRHVMAINNEIEGAFVVSSGKNMGAFKGVGYPEEIADFFRLEEYTGYIWTAHNRFPTNTPGWWGGAHPFTLLDWSIVHNGEISSYGINKRYLEMYGYVCTMLTDTEVVAYTLDLLIRKHGLTPELASLAMAAPFWDMIDGLPDDERQLLTAIRQVYGSALLNGPFAILFASNEGLIGLNDRVKLRPLVCATKDDFVYMASEEAAIREICPAPDKVWSPRGGEPVIVKMQPGVI, MIKFSATLLATLIAASVNAATVDLRIMETTDLHSNMMDFDYYKDAATEKFGLVRTASLIEQARAEVKNSVLVDNGDVIQGSPLGDYMAAKGLKEGDVHPVYKAMNTLNYAVGNLGNHEFNYGLDFLHKALAGAKFPYVNANIIDAKTGKPMFTPYLIQDTRVVDSDGQIHTLRIGYIGFVPPQIMTWDKANLNGKVTVNDITETARKYIPEMRAKGADVVVVVAHSGLSADPYQAMAENSVYYLSQVPGVDAIMFGHAHAVFPGKDFANIKGADIAKGTLNGVPAVMPGMWGDHLGVVDLVLNNDSGKWQVTQSKAEARPIYDAVAKKSLAAEDGKLVSVLKADHDATREFVSK, MIKKGYHVAVVGATGAVGQKIIELLENEMKFNVVEVTLLSSKRSAGKKVRFKGREIIIQEAKTTSFEGVDIAFFSAGGEVSRQFVTHAVSSGAIVIDNTSEYRMAQGVPLVVPEVNAHTLKQHKGIIAVPNCSALQMVTALQPIRKSFGLERIIVSTYQAVSGSGIHAIHELREQAKSILAGEEVKSDILPVKKDKKHYPIAFNVLPQVDIFTDNDFTFEEVKMIQETKKILEDENLKMAATCVRVPVVSGHSESVYIELEKEASVAEIKGILMDAPGVILQDNPSEQLYPMPLYAEGKIDTFVGRIRKDPDTPNGFHLWIVSDNLLKGAAWNSVQIAETLVEKGIL, MIKLENELLLVEMKEAGAELTRIFHKDTKLEYLWNADSTFWGRHSPVLFPTVGRLVEDTYFVDGNPYHLGQHGFARDRDFKVVEHTENAVRFELDADEDSLTIYPYKFKLSIIYTIEKDSVAVSYEVENTDNKRIYFSIGAHPAFNLPLADGTTFEDYYLDFGTEENLETLCLEGPYRSGKIEKVVNEPARYLPLSYDLFKNDALIFEGLKQKEITIKSDKTPHFVKVSFPEFPFVGVWTAKAGTPFLCIEPWYGIADGAGKSVELRDKAGIEHLEPEAVFASEYKITIGLEHHHHHH

Soluble on expression in E. coli, soluble:
MIFPVARYALRWLRRPEDRAFSRAAMEMALRGVRKVLCVAEKNDAAKGIADLLSNGRMRRREGLSKFNKIYEFDYHLYGQNVTMVMTSVSGHLLAHDFQMQFRKWQSCNPLVLFEAEIEKYCPENFVDIKKTLERETRQCQALVIWTDCDREGENIGFEIIHVCKAVKPNLQVLRARFSEITPHAVRTACENLTEPDQRVSDAVDVRQELDLRIGAAFTRFQTLRLQRIFPEVLAEQLISYGSCQFPTLGFVVERFKAIQAFVPEIFHRIKVTHDHKDGIVEFNWKRHRLFNHTACLVLYQLCVEDPMATVVEVRSKPKSKWRPQALDTVELEKLASRKLRINAKETMRIAEKLYTQGYISYPRTETNIFPRDLNLTVLVEQQTPDPRWGAFAQSILERGGPTPRNGNKSDQAHPPIHPTKYTNNLQGDEQRLYEFIVRHFLACCSQDAQGQETTVEIDIAQERFVAHGLMILARNYLDVYPYDHWSDKILPVYEQGSHFQPSTVEMVDGETSPPKLLTEADLIALMEKHGIGTDATHAEHIETIKARMYVGLTPDKRFLPGHLGMGLVEGYDSMGYEMSKPDLRAELEADLKLICDGKKDKFVVLRQQVQKYKQVFIEAVAKAKKLDEALAQYFGNGTELAQQEDIYPAMPEPIRKCPQCNKDMVLKTKKNGGFYLSCMGFPECRSAVWLPDSVLEASRDSSVCPVCQPHPVYRLKLKFKRGSLPPTMPLEFVCCIGGCDDTLREILDLRFSGGPPRASQPSGRLQANQSLNRMDNSQHPQPADSRQTGSSKALAQTLPPPTAAGESNSVTCNCGQEAVLLTVRKEGPNRGRQFFKCNGGSCNFFLWADSPNPGAGGPPALAYRPLGASLGCPPGPGIHLGGFGNPGDGSGSGTSCLCSQPSVTRTVQKDGPNKGRQFHTCAKPREQQCGFFQWVDENTAPGTSGAPSWTGDRGRTLESEARSKRPRASSSDMGSTAKKPRKCSLCHQPGHTRPFCPQNR, MIFVLDVGNTNTVLGVYDGDELKHHWRIETSRSKTEDEYGMMIKALLNHVGLQFSDIRGIIISSVVPPIMFALERMCLKYFHIKPLIVGPGIKTGLDIKYDNPREVGADRIVNAVAGIHLYGSPLIIVDFGTATTYCYINEHKQYMGGAIAPGIMISTEALFARAAKLPRIEIARPDDIIGKNTVSAMQAGILYGYVGQVEGIVSRMKAKSKIPPKVIATGGLAPLIASESDIIDVVDPFLTLTGLKLLYEKNTEKKG, MIGLFNDCFPPIMDGVSLTTQNYAYWLHRKAGNVCVVTPKSPDARDAEEYPVYRYSSVPIPMRKPYRLGFPRIDWPFHERISRLSFELVHAHCPFSSGALAMQIAREQHVPIVATFHSKYRADFERAIPSRLLVNYLIRKVIRFYEAADEVWIPQAAVEETLREYGYKGRIEVVDNGNDFAGTPFLQSVRQEARRTLGIRSGEFMFLFVGQHIWEKNLGFLLDSLVRLSDIPFRMYFVGSGYASHELKQKVVELGLASKVSFVGSIVEREILKRYYVAADLFLFPSLYDNAPLVIREAAALGTPSVLIRDSTASEIISDSVNGFLSPNSTEAYSNRIREILCSTAIIKQVGEEASRTIARSWEDVAGEVYDRYNRLIKRNGNKLEHHHHHH, MIIGVLAIQGDVEEHEEAIKKAGYEAKKVKRVEDLEGIDALIIPGGESTAIGKLMKKYGLLEKIKNSNLPILGTCAGMVLLSKGTGINQILLELMDITVKRNAYGRQVDSFEKEIEFKDLGKVYGVFIRAPVVDKILSDDVEVIARDGDKIVGVKQGKYMALSFHPELSEDGYKVYKYFVENCVKK, MIITGSFGNGHLQVTQSVVNQFKEMNLDNLTVIEHDLFLEAHPILTSICKKWYINSFKYFRNMYKAFYYSQPDQLDKCFYKYYGLNKLMNLLLKEKPDLILLTFPTPVMSVLTEQFDMNIPIATVMTDYRMQKNWITPFSQRYYLATEELKDEFASIGIPKDKLKVTGIPISDKFELEHHHHHH, MIIYRDLISHDVMFSDIYKIREIADGLCLEVEGKMVSRTEGNIDDSLIGGNASAEGPEGEGTESTVITGVDIVMNHHLQETSFTKEAYKKYIKDYMKSIKGKLEEQRPERVKPFMTGAAEQIKHILANFKNYQFFIGENMNPDGMVALLDYREDGVTPYMIFFKDGLEMEKCLEHHHHHH, MIKMIDQYQAFTQSPIGKFVVKNLGLPSPVVLDRFESGQPVIKGAVLMGAAPSSSLTSGIAQVLSNIHADSYAGNNAEIQQAAAQVGLNLRAFNSGDKESKFKAVVFDASGIQNSEQLDELYKFFNPIVRQIESSGRVIVLGTSPESAKTVKQAIAQRALEGFIKSVGKEFKKGITAQVVYVDEGAVNNIESTLRFLLSPRSAYVSGQVIRVSKAEVVQVDWDKPLAGKTALVTGASRGIGEAIAHVLARDGAHVICLDVPQQQVDLDRVASEIGGSALGLDITAADAGEKIKAAAAKQGGLDIIVHNAGITRDKTLANMKSELWDLVININLSAAERINDYLLANDGLNTNGRIVCVSSISGIAGNLGQTNYAVSKAGVIGLVKFTAPILKNGITINAVAPGFIETQMTAAIPFAIREAGRRMNSMNQGGLPVDVAETISWFAATGSTGINGNVVRVCGQSLLGALEHHHHHH
